Experimental data: publication PMC6286126, “A novel pathway of LPS uptake through syndecan-1 leading to pyroptotic cell death” (eLife, 2018)

Biological target: the molecule itself
Assay: native gel or EMSA; human SCGB3A2 10 µg on 0.8% agarose gel in TAE, Coomassie Brilliant Blue staining of the gel

B1: recombinant human SCGB3A2 (C1) (natural protein, UniProt Q96PL1 22-93, looked up)
chain: FLINKVPLPVDKLAPLPLDNILPFMDPLKLLLKTLGISVEHLVEGLRKCVNELGPEASEAVKKLLEALSHLV
notes: recombinant human SCGB3A2, lot C1; also called hS2; source: recombinant; in house (APCBio Innovations), Cai et al., 2014
Does B1 bind?
Result: binds
